Patent US20230322882A1 (NANJING NORMAL UNIVERSITY, published 2023)
Like-named read-outs stand apart in the source and are kept apart here.

T1: CD25, CD122 and CD132 receptor molecules on HEK-Blue IL-2 cells (UniProt P01589 22-272; P14784 27-551; P31785 23-369, limits assumed)
T1 sequence (looked up) 1: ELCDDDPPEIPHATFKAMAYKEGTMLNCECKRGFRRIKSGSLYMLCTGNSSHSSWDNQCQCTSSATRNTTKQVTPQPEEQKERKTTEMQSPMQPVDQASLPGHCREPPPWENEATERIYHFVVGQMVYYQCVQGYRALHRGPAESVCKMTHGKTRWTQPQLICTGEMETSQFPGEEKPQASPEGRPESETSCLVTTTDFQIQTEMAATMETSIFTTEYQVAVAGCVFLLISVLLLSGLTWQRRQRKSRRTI
T1 sequence (looked up) 2: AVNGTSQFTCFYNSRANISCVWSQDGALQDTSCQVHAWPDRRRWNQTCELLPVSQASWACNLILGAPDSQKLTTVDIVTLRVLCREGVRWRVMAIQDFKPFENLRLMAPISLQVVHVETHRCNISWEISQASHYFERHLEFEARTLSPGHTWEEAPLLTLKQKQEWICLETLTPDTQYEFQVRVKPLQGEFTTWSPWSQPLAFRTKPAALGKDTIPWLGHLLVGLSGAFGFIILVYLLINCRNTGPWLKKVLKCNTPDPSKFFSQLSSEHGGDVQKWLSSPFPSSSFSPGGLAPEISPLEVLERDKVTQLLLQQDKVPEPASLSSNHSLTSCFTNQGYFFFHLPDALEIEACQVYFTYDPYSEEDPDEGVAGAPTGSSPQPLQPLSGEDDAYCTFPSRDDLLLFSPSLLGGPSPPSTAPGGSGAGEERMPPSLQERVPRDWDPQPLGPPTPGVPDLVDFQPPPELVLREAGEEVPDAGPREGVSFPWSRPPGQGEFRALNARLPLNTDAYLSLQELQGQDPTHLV
T1 sequence (looked up) 3: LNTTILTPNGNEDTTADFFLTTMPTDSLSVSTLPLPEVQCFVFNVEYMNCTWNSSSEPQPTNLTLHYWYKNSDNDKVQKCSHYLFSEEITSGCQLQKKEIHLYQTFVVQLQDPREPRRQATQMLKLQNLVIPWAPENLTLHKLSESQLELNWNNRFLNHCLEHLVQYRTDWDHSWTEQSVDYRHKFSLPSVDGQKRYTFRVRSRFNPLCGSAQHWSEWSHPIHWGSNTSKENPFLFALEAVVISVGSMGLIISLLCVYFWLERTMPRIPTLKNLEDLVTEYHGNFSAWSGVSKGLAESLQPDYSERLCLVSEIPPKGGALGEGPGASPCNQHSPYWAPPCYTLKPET


Columns and labels:
[1] = target: T1, CD25, CD122 and CD132 receptor …; test: cell-based or functional assay
[2] = target: T1, CD25, CD122 and CD132 receptor …; test: cell-based or functional assay; remark: listed apart in the source

Row | EC50 (pM), STAT5-regulated SEAP reporter in HEK-Blue IL-2 cells [1] [pM] | EC50 (pM), STAT5-regulated SEAP reporter in HEK-Blue IL-2 cells [2] [pM] | Binder
1 | 10.8 | – | Polypeptide dimer 1 (SEQ ID NO: 31 + SEQ ID NO: 32) (Fc fusion) chain 1: HHHHHHTCPPCPAPEAAGGPSVFLFPPKPKDTLMISRTPEVTCVVVDVSHEDPEVKFNWYVDGVEVHNAKTKPREEQYNSTYRVVSVLTVLHQDWLNGKEYKCKVSNKALGAPIEKTISKAKGQPREPQVYTLPPCREEMTKNQVSLWCLVKGFYPSDIAVEWESNGQPENNYKTTPPVLDSDGSFFLYSKLTVDKSRWQQGNVFSCSVMHEALHNHYTQKSLSLSPGGGGGSGGGGSNFHLRPRDLISNINVIVLELKGSETTFMCEYADETATIVEFLNRWITFSQSIISTLTGSGPASSSTKKTQLQLEHLLLDLQMILNGINNYKNPKLTRMLTFKFYMPKKATELKHLQCLEEELKPLEEVLNLAQSK chain 2: HTCPPCPAPEAAGGPSVFLFPPKPKDTLMISRTPEVTCVVVDVSHEDPEVKFNWYVDGVEVHNAKTKPREEQYNSTYRVVSVLTVLHQDWLNGKEYKCKVSNKALGAPIEKTISKAKGQPREPQVCTLPPSREEMTKNQVSLSCAVKGFYPSDIAVEWESNGQPENNYKTTPPVLDSDGSFFLVSKLTVDKSRWQQGNVFSCSVMHEALHNHYTQKSLSLSPGGGGGSGGGGSELCDDDPPEIPHATFKAMAYKEGTMLNCECKRGFRRIKSGSLYMLCTGNSSHSSWDNQCQCTSSATRNTTKQVTPQPEEQKERKTTEMQSPMQPVDQASLPGHCREPPPWENEATERIYHFVVGQMVYYQCVQGYRALHRGPAESVCKMTHGKTRWTQPQLICTGDYKDDDDK
2 | – | 10.2 | Polypeptide dimer 2 (SEQ ID NO: 33 + SEQ ID NO: 34) (Fc fusion) chain 1: HHHHHHTCPPCPAPEAAGGPSVFLFPPKPKDTLMISRTPEVTCVVVDVSHEDPEVKFNWYVDGVEVHNAKTKPREEQYNSTYRVVSVLTVLHQDWLNGKEYKCKVSNKALGAPIEKTISKAKGQPREPQVCTLPPSREEMTKNQVSLSCAVKGFYPSDIAVEWESNGQPENNYKTTPPVLDSDGSFFLVSKLTVDKSRWQQGNVFSCSVMHEALHNHYTQKSLSLSPGGGGGSGGGGSNFHLRPRDLISNINVIVLELKGSETTFMCEYADETATIVEFLNRWITFSQSIISTLTGSGPASSSTKKTQLQLEHLLLDLQMILNGINNYKNPKLTRMLTFKFYMPKKATELKHLQCLEEELKPLEEVLNLAQSK chain 2: HTCPPCPAPEAAGGPSVFLFPPKPKDTLMISRTPEVTCVVVDVSHEDPEVKFNWYVDGVEVHNAKTKPREEQYNSTYRVVSVLTVLHQDWLNGKEYKCKVSNKALGAPIEKTISKAKGQPREPQVYTLPPCREEMTKNQVSLWCLVKGFYPSDIAVEWESNGQPENNYKTTPPVLDSDGSFFLYSKLTVDKSRWQQGNVFSCSVMHEALHNHYTQKSLSLSPGGGGGSGGGGSELCDDDPPEIPHATFKAMAYKEGTMLNCECKRGFRRIKSGSLYMLCTGNSSHSSWDNQCQCTSSATRNTTKQVTPQPEEQKERKTTEMQSPMQPVDQASLPGHCREPPPWENEATERIYHFVVGQMVYYQCVQGYRALHRGPAESVCKMTHGKTRWTQPQLICTGDYKDDDDK
